Test results published in PMC4728290.

Molecular target: human insulin receptor fused with Renilla luciferase 8 (human) (UniProt P06213)

EC50 of insulin for the insulin-induced BRET increase between hIR–Rluc8 and Grb2–Venus (m1 + m3), live HEK293 cells, insulin 0.001-10,000 nM: 4.4 nM
EC50 of insulin for the insulin-induced BRET increase between hIR–Rluc8 and IRS1–YFP (m1 + m2), live HEK293 cells, insulin 0.001-10,000 nM: 2.2 nM
Substance: bovine insulin (ligand)
